The record followed here is patent US20150110806A1 (INSTITUT NATIONAL DE LA SANTE ET DE LA RECHERCHE MEDICALE, published 2015).

The target in this assay is T1, MBP (UniProt P0AEX9 27-392 = MBP).
T1 construct: Control without pilin
Briefly: co-precipitation of CD147-Fc with MBP immobilised on staphylococci, immunoblot. For orientation: Immunoblotting shows a protein as a band on a membrane.

B1: recombinant human CD147-Fc chimera (Fc fusion)
chain: THGASGAAGTVFTTVEDLGSKILLTCSLNDSATEVTGHRWLKGGVVLKEDALPGQKTEFKVDSDDQWGEYSCVFLPEPMGTANIQLHGPPRVKAVKSSEHINEGETAMLVCKSESVPPVTDWAWYKITDSEDKALMNGSESRFFVSSSQGRSELHIENLNMEADPGQYRCNGTSSKGSDQAIITLRVRSH
notes: Bought from R&D Systems; comprises the Ig domains of CD147 fused to the Fc domain of human IgG1, produced as a disulfide-linked homodimer; also called soluble chimeric CD147-Fc; recombinant soluble form of the extracellular domain of CD147; not shown: Fc domain of human IgG1
For B1, the binding result is reported as “no binding (tested: 1 µg of recombinant human CD147-Fc)”.
